From patent US20240132624A1 (Ablynx, published 2024)
Substitutions are numbered along the chain they refer to.

B1: T0263018B11 S52Q (VHH, name in Kabat numbering)
VHH: EVQLVESGGGVVQPGGSLRLSCAASGFTFSSYAMYWVRQAPGKGLEWVSAIQSGGGSTDYADSVKGRFTISRDNSKNTLYLQMNSLRPEDTALYYCAADTLYTSLTWYSYWGQGTLVTVSS
notes: FLAG3-His6 tagged
B2: T0263018B11 S52R (VHH, name in Kabat numbering)
VHH: B1 VHH with Q52R
notes: FLAG3-His6 tagged
B3: T0263018B11 S52T (VHH, name in Kabat numbering)
VHH: B1 VHH with Q52T
notes: FLAG3-His6 tagged
B4: T0263018B11 S52V (VHH, name in Kabat numbering)
VHH: B1 VHH with Q52V
notes: FLAG3-His6 tagged
B5: T0263018B11 S52aA (VHH, name in Kabat numbering)
VHH: B1 VHH with Q52S, S53A
notes: FLAG3-His6 tagged
B6: T0263018B11 S52aE (VHH, name in Kabat numbering)
VHH: B1 VHH with Q52S, S53E
notes: FLAG3-His6 tagged
B7: T0263018B11 S52aG (VHH, name in Kabat numbering)
VHH: B1 VHH with Q52S, S53G
notes: FLAG3-His6 tagged
B8: T0263018B11 S52aM (VHH, name in Kabat numbering)
VHH: B1 VHH with Q52S, S53M
notes: FLAG3-His6 tagged
B9: T0263018B11 S52aN (VHH, name in Kabat numbering)
VHH: B1 VHH with Q52S, S53N
notes: FLAG3-His6 tagged
B10: T0263018B11 S52aP (VHH, name in Kabat numbering)
VHH: B1 VHH with Q52S, S53P
notes: FLAG3-His6 tagged
B11: T0263018B11 S52aR (VHH, name in Kabat numbering)
VHH: B1 VHH with Q52S, S53R
notes: FLAG3-His6 tagged
B12: T0263018B11 S52aT (VHH, name in Kabat numbering)
VHH: B1 VHH with Q52S, S53T
notes: FLAG3-His6 tagged
B13: T0263018B11 S52aV (VHH, name in Kabat numbering)
VHH: B1 VHH with Q52S, S53V
notes: FLAG3-His6 tagged
B14: T0263018B11 S52aW (VHH, name in Kabat numbering)
VHH: B1 VHH with Q52S, S53W
notes: FLAG3-His6 tagged
B15: T0263018B11 S52aY (VHH, name in Kabat numbering)
VHH: B1 VHH with Q52S, S53Y
notes: FLAG3-His6 tagged
B16: T0263018B11 S56A (VHH, name in Kabat numbering)
VHH: B1 VHH with Q52S, S57A
notes: FLAG3-His6 tagged
B17: T0263018B11 S56H (VHH, name in Kabat numbering)
VHH: B1 VHH with Q52S, S57H
notes: FLAG3-His6 tagged
B18: T0263018B11 S56K (VHH, name in Kabat numbering)
VHH: B1 VHH with Q52S, S57K
notes: FLAG3-His6 tagged
B19: T0263018B11 S56L (VHH, name in Kabat numbering)
VHH: B1 VHH with Q52S, S57L
notes: FLAG3-His6 tagged
B20: T0263018B11 S56Q (VHH, name in Kabat numbering)
VHH: B1 VHH with Q52S, S57Q
notes: FLAG3-His6 tagged
B21: T0263018B11 S56T (VHH, name in Kabat numbering)
VHH: B1 VHH with Q52S, S57T
notes: FLAG3-His6 tagged
B22: T0263018B11 S56V (VHH, name in Kabat numbering)
VHH: B1 VHH with Q52S, S57V
notes: FLAG3-His6 tagged
B23: T0263018B11 S100K (VHH, name in Kabat numbering)
VHH: B1 VHH with Q52S, S104K
notes: FLAG3-His6 tagged
B24: T0263018B11 S100M (VHH, name in Kabat numbering)
VHH: B1 VHH with Q52S, S104M
notes: FLAG3-His6 tagged
B25: T0263018B11 S100Q (VHH, name in Kabat numbering)
VHH: B1 VHH with Q52S, S104Q
notes: FLAG3-His6 tagged
B26: T0263018B11 S101A (VHH, name in Kabat numbering)
VHH: B1 VHH with Q52S, S109A
notes: FLAG3-His6 tagged
B27: T0263018B11 S101E (VHH, name in Kabat numbering)
VHH: B1 VHH with Q52S, S109E
notes: FLAG3-His6 tagged
B28: T0263018B11 S101M (VHH, name in Kabat numbering)
VHH: B1 VHH with Q52S, S109M
notes: FLAG3-His6 tagged
B29: T0263018B11 S101Q (VHH, name in Kabat numbering)
VHH: B1 VHH with Q52S, S109Q
notes: FLAG3-His6 tagged
B30: T0263018B11 S101T (VHH, name in Kabat numbering)
VHH: B1 VHH with Q52S, S109T
notes: FLAG3-His6 tagged
B31: T0263018B11 S101V (VHH, name in Kabat numbering)
VHH: B1 VHH with Q52S, S109V
notes: FLAG3-His6 tagged

How the values were obtained:
cyno FcRn/b2M [1] = molecular target: T1, cyno FcRn/b2M (cyno, UniProt Q8SPV9 24-297; Q8SPW0 21-119, biotinylated); assay: SPR off-rate; pH 7.4 vs pH 6.0;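 also: surface plasmon resonance with diluted periplasmic extracts flowed over ligand surfaces, 120 s association and 600–3600 s dissociation at 25 °C, running buffer containing 150 mM NaCl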
T1 construct: bought recombinant biotinylated protein (Immunitrack ITF05 or ACRO FCM-C82W5); also called cFcRn; cFcRn/cb2M
Protocol: (§1) All kinetic measurements have been performed on ProteOn XPR36 (BioRad Laboratories, Inc.), MASS-2 (Sierra sensors, Gmbh) or SPR-32 (Bruker Corporation). […] The phytip purified periplasmic extracts were diluted 1:10 in running buffer (CPA+150 mM NaCl+0.005% Tw20 at pH 5.5, pH 6.0 or pH 7.4) and injected over the ligand surfaces (association: 120 s at 45 μL/min; dissociation: 600s-3600 s at 45 μL/min). Experiments were carried out at 25° C.

human FcRn/b2M [2] = molecular target: T2, human FcRn/b2M (human, UniProt P61769 21-119, biotinylated); assay: SPR off-rate; pH 7.4 vs pH 6.0;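 also: surface plasmon resonance with diluted periplasmic extracts flowed over ligand surfaces, 120 s association and 600–3600 s dissociation at 25 °C, running buffer containing 150 mM NaCl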
T2 construct: bought recombinant biotinylated protein (ACRO FCM-H82W4 or Immunitrack ITF01); also called hFcRn; hFcRn/hb2M
Protocol: as §1

cyno FcRn/b2M [3] = molecular target: T1, cyno FcRn/b2M; assay: SPR pH 7.4;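 also: surface plasmon resonance kinetics, periplasmic extracts diluted 1:10 flowed over immobilized target at 25 °C, 120 s association then 600–3600 s dissociation, buffer with 150 mM NaCl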
Protocol: as §1

human FcRn/b2M [4] = molecular target: T2, human FcRn/b2M; assay: SPR pH 7.4;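 also: surface plasmon resonance kinetics, periplasmic extracts diluted 1:10 flowed over immobilized target at 25 °C, 120 s association then 600–3600 s dissociation, buffer with 150 mM NaCl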
Protocol: as §1

cyno FcRn/b2M [5] = molecular target: T1, cyno FcRn/b2M; assay: SPR pH 6.0;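 also: surface plasmon resonance kinetics at 25 °C, diluted periplasmic extracts injected over immobilized ligand surfaces, 120 s association then 600–3600 s dissociation, running buffer containing 150 mM NaCl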
Protocol: as §1

human FcRn/b2M [6] = molecular target: T2, human FcRn/b2M; assay: SPR pH 6.0;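 also: surface plasmon resonance kinetics at 25 °C, diluted periplasmic extracts injected over immobilized ligand surfaces, 120 s association then 600–3600 s dissociation, running buffer containing 150 mM NaCl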
Protocol: as §1

T1 sequence (Q8SPV9 24-297 limits assumed, chain 1 of 2): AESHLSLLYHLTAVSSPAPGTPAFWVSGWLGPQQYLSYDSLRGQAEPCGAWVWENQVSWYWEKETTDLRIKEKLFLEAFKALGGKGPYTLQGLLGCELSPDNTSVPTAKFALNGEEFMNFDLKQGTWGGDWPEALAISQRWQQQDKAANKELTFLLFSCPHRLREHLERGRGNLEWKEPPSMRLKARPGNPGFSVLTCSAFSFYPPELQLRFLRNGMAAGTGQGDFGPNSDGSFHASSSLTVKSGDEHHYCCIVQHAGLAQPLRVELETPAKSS
T1 sequence (Q8SPW0 21-119 limits assumed, chain 2 of 2): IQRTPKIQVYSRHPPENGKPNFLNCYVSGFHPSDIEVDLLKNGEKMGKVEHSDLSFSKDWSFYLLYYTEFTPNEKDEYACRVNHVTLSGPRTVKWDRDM
T2 sequence (chain, as listed by the source limits assumed, chain 1 of 2): as the sequence (Q8SPV9 24-297 limits assumed, chain 1 of 2) above, with D39N, Q44E, S99G, G189S, N190S, M217L, T269S counted along it
T2 sequence (P61769 21-119 limits assumed, chain 2 of 2): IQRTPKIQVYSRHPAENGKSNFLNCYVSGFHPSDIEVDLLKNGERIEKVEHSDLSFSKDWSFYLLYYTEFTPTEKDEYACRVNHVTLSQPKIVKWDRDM

Row | Binder | kd ratio pH 7.4/6.0 (cyno FcRn/b2M [1]) | kd ratio pH 7.4/6.0 (human FcRn/b2M [2]) | koff (cyno FcRn/b2M [3]) [s⁻¹] | koff (human FcRn/b2M [4]) [s⁻¹] | koff (cyno FcRn/b2M [5]) [s⁻¹] | koff (human FcRn/b2M [6]) [s⁻¹]
1 | B1 | 26 | 22 | 0.14 | 0.15 | 0.0055 | 0.0067
2 | B2 | 24 | 20 | 0.38 | 0.44 | 0.016 | 0.023
3 | B3 | 25 | 24 | 0.042 | 0.045 | 0.0017 | 0.0019
4 | B4 | 25 | 24 | 0.064 | 0.058 | 0.0025 | 0.0024
5 | B5 | 51 | 43 | 0.022 | 0.029 | 0.00043 | 0.00068
6 | B6 | 51 | 41 | 0.039 | 0.036 | 0.00077 | 0.00087
7 | B7 | 51 | 39 | 0.031 | 0.034 | 0.0006 | 0.00088
8 | B8 | 48 | 36 | 0.013 | 0.018 | 0.00027 | 0.00048
9 | B9 | 60 | 51 | 0.047 | 0.063 | 0.00079 | 0.0012
10 | B10 | 71 | 53 | 0.021 | 0.029 | 0.0003 | 0.00054
11 | B11 | 61 | 56 | 0.091 | 0.13 | 0.0015 | 0.0023
12 | B12 | 49 | 39 | 0.059 | 0.062 | 0.0012 | 0.0016
13 | B13 | 45 | 30 | 0.095 | 0.081 | 0.0021 | 0.0027
14 | B14 | 54 | 41 | 0.043 | 0.062 | 0.0008 | 0.0015
15 | B15 | 44 | 42 | 0.023 | 0.035 | 0.00052 | 0.00083
16 | B16 | 45 | 39 | 0.045 | 0.051 | 0.001 | 0.0013

Row | Binder | kd ratio pH 7.4/6.0 (cyno FcRn/b2M [1]) | kd ratio pH 7.4/6.0 (human FcRn/b2M [2]) | koff (cyno FcRn/b2M [3]) [s⁻¹] | koff (human FcRn/b2M [4]) [s⁻¹] | koff (cyno FcRn/b2M [5]) [s⁻¹] | koff (human FcRn/b2M [6]) [s⁻¹]
17 | B17 | 36 | 35 | 0.046 | 0.055 | 0.0013 | 0.0016
18 | B18 | 25 | 25 | 0.044 | 0.053 | 0.0018 | 0.0021
19 | B19 | 28 | 26 | 0.013 | 0.02 | 0.00045 | 0.00075
20 | B20 | 38 | 30 | 0.068 | 0.067 | 0.0018 | 0.0022
21 | B21 | 47 | 42 | 0.047 | 0.055 | 0.001 | 0.0013
22 | B22 | 37 | 34 | 0.038 | 0.044 | 0.001 | 0.0013
23 | B23 | 69 | 54 | 0.083 | 0.18 | 0.0012 | 0.0032
24 | B24 | 68 | 57 | 0.016 | 0.032 | 0.00024 | 0.00056
25 | B25 | 69 | 68 | 0.058 | 0.13 | 0.00084 | 0.0019
26 | B26 | 45 | 36 | 0.058 | 0.062 | 0.0013 | 0.0017
27 | B27 | 36 | 44 | 0.0034 | 0.0078 | 9.4e-05 | 0.00018
28 | B28 | 54 | 44 | 0.037 | 0.048 | 0.00068 | 0.0011
29 | B29 | 43 | 45 | 0.016 | 0.025 | 0.00038 | 0.00055
30 | B30 | 54 | 44 | 0.019 | 0.025 | 0.00036 | 0.00057
31 | B31 | 45 | 43 | 0.026 | 0.032 | 0.00058 | 0.00073
